In article PMC12269619 (2025):

B1: m42.127 Fab / Biotinylated junctional peptide Pep21 (PfCSP peptide 21) [modified: biotin (position not stated); biotin (position not stated)] [Plasmodium falciparum (clone 3D7)] (parent complex)
chain 1: QVQLVQSGAEVKKPGASVKVSCKASGYTFTSYAIHWVRQAPGQRLEWMGWIKAGNGNTRYSQKFQDRVTITRDTSASTAYMELSSLRSEDTAVYYCALLTVITPDDTFDIWGQGTMVTVSSASTKGPSVFPLAPSSKSTSGGTAALGCLVKDYFPEPVTVSWNSGALTSGVHTFPAVLQSSGLYSLSSVVTVPSSSLGTQTYICNVNHKPSNTKVDKKVEPKSCDKGLEVLFQ
chain 2: not shown
chain 3: NPDPNANPNVDPNAN

Variants of: B1
Assay: BLI; read off a plot

Variant	Kd [nM]
chain 1 T100M	~24
chain 1 Y32K	~18
chain 1 T103R, chain 1 P104Q	~18
chain 1 T103R, chain 1 P104R	~15
chain 1 T103K	~15
chain 1 P104M	~22
chain 1 P104Q	~20
